We go through 16 proteins from patent publication US20250027068.

First the molecules themselves.
B1: PRT-435 (protein)
chain: MSQTEDSESLQRLRDIEDFQAEKEKQNVVYTKWLDGVDVKDHDFRKIVDGNIAYYATPLLNGRGFYDINKDFNRDSDKCAAAVAANMFHYWLDRNRDNVDRFLRQNPEKHGIIELPDGQLKLSDFLNTYESDDGYRDKSKLFDFISNNFNGPVWTDKLLDNYINGYAYNYKYGRTIEDPTKNTSKINFFKEVFNEKILTNNHSIRNQNEFSVLLSEALYTGKAIGLSYGPAGLRHSLGHIISVWGADLDADGNVVAIYVTDSDDKKLTIGDERVGLKRYKISTDDEGRLRLTAYEETHNTGGQIRGLWTLDTGKQAWADYFDKTEQTGTDQAEQ
B2: PRT-577 (protein)
chain: MANQEIRYSKATPSTITSVWTKGVTPPENFIYNEDVLHAPYLANQGWYDITKTFNGKDDLLCGAATAGNMLHWWFDQNKEQIERYLKEHPEKQKINFNGEQMFDVKEAIDTKDSQTNSKLFEYFKDKAFPYLSTKHLGVFPDHVIDMFINGYRLSLTNHGPTPVKEQTKDPRGGIFDAVFTRGDQSKLLTSRHDFKEKTLNEISQLIKQELTEGKALGLSHTYANVRINHVINLWGADFNAEGNLEAIYVTDSDSNASIGMKKYYVGVNSAGKVAISAKEIEGDNIGAQVLGLFTLSTGQDIWQQTNLEHHHHHH
B3: PRT-585 (protein)
chain: B2 chain with N29Q, L42I, E88K, Q205D, Q304E
B4: PRT-694 (protein)
chain: MTITSVWTKGVTPPTPEDFRYNNEDVLHAPYVANQGWYDITKTFDGKDNLLCGAATAGNMLHWWFDQNKEEIERYLKKYPEKQKIIFNNQELFDVRAAINTKDSQTNSKLFNYFRDKAFPNLSARQLGVMPDLVLDMFINGYYLNLGKTQSTDVNRPYQDKDKRGGIFDAVFNRGDQTTLLTARHDLKNKGLNEISDLIKQELSSGKALALSHTYANVRINHVINLWGADFDAEGNLIAIYVTDSDANSNIGMKKYKVGVNANGKVAISAKKIEGDNIGAQVLGLFTLSTGQDIWQKLSLEHHHHHH
B5: PRT-377 (protein)
chain: MVTSVWTKGVTPPTNFTYGEDVLHAPYVANQGWYDITKTFNGKDDLLCGAATAGNMLHWWFDQNKEQIENYLKKHPEKQKINFNGEQMFDVKEAIDTKDSQLDSKLFEYFLEKAFPYLSTKHLGVFPDHVIDMFINGYRLSLTNHGPTPVKRGSKDPRGGIFDAVFTRGDQSKLLTNRHDFKEKTLKEISDLIKQELTEGKALGISHTYANVRINHVINLWGADFDAEGNLEAIYVTDSDSNASIGMKKYFVGVNSNGKVAISAKEIEEDNIGAQVLGLFTLSTGQDIWNQTN
B6: PRT-441 (protein)
chain: B1 chain with E24K, L233T
B7: PRT-430 (protein)
chain: B1 chain with E24K, I52S
B8: PRT-440 (protein)
chain: B1 chain with E24K, F210L
B9: PRT-436 (protein)
chain: B1 chain with E24K, K25D
B10: PRT-445 (protein)
chain: B1 chain with E24K, P179S
B11: PRT-373 (protein)
chain: B1 chain with I52S, F65W, S76N, N147E, Y170S, P179S, S215I, S236G, I304V
B12: PRT-431 (protein)
chain: B1 chain with E24K, N147E
B13: PRT-438 (protein)
chain: B1 chain with E24K, F65L
B14: PRT-432 (protein)
chain: B1 chain with E24K, Y170S
B15: PRT-564 (protein)
chain: MANQEIRYSEATPSHITSVWTKGVTPPTQFIQNEDVLHAPYIANQGWYDITKTFNGKDDLLCGAATAGNMLHWWFDQNKTQIENYLKKHPEKQKINFNGEQMFDVKEAIDTKDSQTDSALFSYFKDKAFPYLSTKHLGVFPDHVIDMFINGYRLSLTNHGPTPVKRQTKDPRGGIFDAVFTRGDQSKLLTSRHDFKEKTLNEISQLIKQELTEGKALGLSHTYANVRINHVINLWGADFNAEGNLEAIYVTDSDSNASIGMKKYYVGVNAAGKVAISAKEIEGDNIGAQVLGLFTLSTGQDIWQQTNLEHHHHHH
B16: PRT-594 (protein)
chain: B15 chain with A11E, H15T, Q29D, T80E, T116L, S122E, Q167G, Q205D, A270S, Q304N

Changes are numbered by the printed parent chain.

One data set has as its target pooled human IgG (human IgG1,2,3 and 4).
Regarding B1, the Enzyme Activity Endpoint Assay: Fab′2 was found to be 35 ng/µL, the Enzyme Activity Endpoint Assay: Fc came out at 205 ng/µL, the Enzyme Activity Endpoint Assay: IgG was 625 ng/µL and the Enzyme Activity Endpoint Assay: scIgG is 380 ng/µL.

For another data set, the target named is pooled human IgG (human IgG1, 2, 3 and 4).
B2 registered an Enzyme Activity Endpoint Assay (purified): Fab'2 of 566 ng/µL, an Enzyme Activity Endpoint Assay (purified): Fc of 338 ng/µL, an Enzyme Activity Endpoint Assay (purified): IgG of 0 ng/µL and an Enzyme Activity Endpoint Assay (purified): scIgG of 230 ng/µL.

The protein B3 had an Enzyme Activity Endpoint Assay (purified): Fab'2 of 574 ng/µL, an Enzyme Activity Endpoint Assay (purified): Fc of 303 ng/µL, an Enzyme Activity Endpoint Assay (purified): IgG of 0 ng/µL and an Enzyme Activity Endpoint Assay (purified): scIgG of 229 ng/µL.

With B4, the Enzyme Activity Endpoint Assay (purified): Fab′2 turned out to be 541 ng/µL, the Enzyme Activity Endpoint Assay (purified): Fc was 0 ng/µL, the Enzyme Activity Endpoint Assay (purified): IgG stood at 1030 ng/µL and the Enzyme Activity Endpoint Assay (purified): scIgG worked out at 15 ng/µL.

On to B5, for which the Enzyme Activity Endpoint Assay (purified): Fab′2 was 572 ng/µL, the Enzyme Activity Endpoint Assay (purified): Fc turned out to be 348 ng/µL, the Enzyme Activity Endpoint Assay (purified): IgG came to 0 ng/µL and the Enzyme Activity Endpoint Assay (purified): scIgG came to 242 ng/µL.

Protein B1 displayed an Enzyme Activity Endpoint Assay (purified): Fab′2 of 35 ng/µL, an Enzyme Activity Endpoint Assay (purified): Fc of 205 ng/µL, an Enzyme Activity Endpoint Assay (purified): IgG of 625 ng/µL and an Enzyme Activity Endpoint Assay (purified): scIgG of 380 ng/µL.

B6 yielded an Enzyme Activity Endpoint Assay (purified): Fab'2 of 514 ng/µL, an Enzyme Activity Endpoint Assay (purified): Fc of 310 ng/µL, an Enzyme Activity Endpoint Assay (purified): IgG of 0 ng/µL and an Enzyme Activity Endpoint Assay (purified): scIgG of 217 ng/µL.

Protein B7 gave an Enzyme Activity Endpoint Assay (purified): Fab′2 of 492 ng/µL, an Enzyme Activity Endpoint Assay (purified): Fc of 330 ng/µL, an Enzyme Activity Endpoint Assay (purified): IgG of 0 ng/µL and an Enzyme Activity Endpoint Assay (purified): scIgG of 324 ng/µL.

The protein B8 gave an Enzyme Activity Endpoint Assay (purified): Fab'2 of 575 ng/µL, an Enzyme Activity Endpoint Assay (purified): Fc of 328 ng/µL, an Enzyme Activity Endpoint Assay (purified): IgG of 0 ng/µL and an Enzyme Activity Endpoint Assay (purified): scIgG of 245 ng/µL.

For the protein B9, the Enzyme Activity Endpoint Assay (purified): Fab'2 was found to be 445 ng/µL, the Enzyme Activity Endpoint Assay (purified): Fc came to 305 ng/µL, the Enzyme Activity Endpoint Assay (purified): IgG turned out to be 0 ng/µL and the Enzyme Activity Endpoint Assay (purified): scIgG was found to be 379 ng/µL.

B10 yielded an Enzyme Activity Endpoint Assay (purified): Fab'2 of 559 ng/µL, an Enzyme Activity Endpoint Assay (purified): Fc of 330 ng/µL, an Enzyme Activity Endpoint Assay (purified): IgG of 0 ng/µL and an Enzyme Activity Endpoint Assay (purified): scIgG of 259 ng/µL.

Protein B11 gave an Enzyme Activity Endpoint Assay (purified): Fab′2 of 392 ng/µL, an Enzyme Activity Endpoint Assay (purified): Fc of 295 ng/µL, an Enzyme Activity Endpoint Assay (purified): IgG of 38 ng/µL and an Enzyme Activity Endpoint Assay (purified): scIgG of 281 ng/µL.

B12 registered an Enzyme Activity Endpoint Assay (purified): Fab′2 of 521 ng/µL, an Enzyme Activity Endpoint Assay (purified): Fc of 310 ng/µL, an Enzyme Activity Endpoint Assay (purified): IgG of 0 ng/µL and an Enzyme Activity Endpoint Assay (purified): scIgG of 230 ng/µL.

Take B13: the Enzyme Activity Endpoint Assay (purified): Fab'2 is 578 ng/µL, the Enzyme Activity Endpoint Assay (purified): Fc stood at 320 ng/µL, the Enzyme Activity Endpoint Assay (purified): IgG came out at 0 ng/µL and the Enzyme Activity Endpoint Assay (purified): scIgG was found to be 249 ng/µL.

B14 displayed an Enzyme Activity Endpoint Assay (purified): Fab′2 of 462 ng/µL, an Enzyme Activity Endpoint Assay (purified): Fc of 305 ng/µL, an Enzyme Activity Endpoint Assay (purified): IgG of 0 ng/µL and an Enzyme Activity Endpoint Assay (purified): scIgG of 385 ng/µL.

B15 returned an Enzyme Activity Endpoint Assay (purified): Fab′2 of 651 ng/µL, an Enzyme Activity Endpoint Assay (purified): Fc of 351 ng/µL, an Enzyme Activity Endpoint Assay (purified): IgG of 0 ng/µL and an Enzyme Activity Endpoint Assay (purified): scIgG of 0 ng/µL.

In turn, B16 returned an Enzyme Activity Endpoint Assay (purified): Fab'2 of 138 ng/µL, an Enzyme Activity Endpoint Assay (purified): Fc of 271 ng/µL, an Enzyme Activity Endpoint Assay (purified): IgG of 123 ng/µL and an Enzyme Activity Endpoint Assay (purified): scIgG of 487 ng/µL.
